Patent publication US20250282852A1 (SINOMAB BIOSCIENCE, published 2025)

B1: Lin-Adu (bispecific antibody)
heavy: not shown
light: DIQMTQSPSSLSASVGDRVTITCRASESVDNYGISFMNWFQQKPGKAPKLLIYAASNQGSGVPSRFSGSGSGTDFTLTISSLQPDDFATYYCQQSKEVPWTFGQGTKVEIKRTVAAPSVFIFPPSDEQLKSGTASVVCLLNNFYPREAKVQWKVDNALQSGNSQESVTEQDSKDSTYSLSSTLTLSKADYEKHKVYACEVTHQGLSSPVTKSFNRGEC
B2: SM06-Adu (bispecific antibody)
heavy: not shown
light: DIQLTQSPSSLSASVGDRVTISCRASQDISNYLNWYQQKPGKAPKLLIYYTSILHSGVPSRFSGSGSGTEFTLTISSLQPEDFATYFCQQGNTLPWTFGGGTKVEIKRTVAAPSVFIFPPSDEQLKSGTASVVCLLNNFYPREAKVQWKVDNALQSGNSQESVTEQDSKDSTYSLSSTLTLSKADYEKHKVYACEVTHQGLSSPVTKSFNRGEC

Assays:
[1] = target: T1, CD33 on HMC-3 cells (human, UniProt P20138 18-364); assay: flow cytometry on fixed HMC-3 cells, 10 µg/mL, anti-human Fc Alexa Fluor 488; graded + (weakest) to +++++ (highest)
T1 construct: Native antigen on HMC-3
Experimental: The binding of different bispecific antibodies to HMC-3 cells is evaluated. Briefly, HMC-3 cells are seeded onto 6 well plate at a density of […]. After plating and culture for overnight, cells are detached with TrypLE™ Express enzyme. Cells are centrifuged at 300 g for 5 minutes. Cell pellets are washed once with phosphate buffer saline (pH7.4). Cells are fixed with 4% PFA in PBS for 5 minutes at room temperature. Cells are washed once with PBS. Bispecifc antibodies at a concentration of10 μg/mL are incubated with HMC-3 for 1 hour at room temperature. Cells are then washed twice with PBS. Cells are incubated with anti-human Fc Alexafluor 488-conjugated antibody diluted 1:1000 in PBS for 1 hour at room temperature. Cells are washed twice with PBS. Cell are centrifuged at 300 g for 5 minutes. Cell pellet is resuspended with 1% BSA in PBS and proceed to flow cytometry. FIG. 5 illustrates a representative result of HMC-3 cell binding by SM03-Adu.

[2] = target: T2, human CD22 protein (Sino Biological) (human); assay: ELISA on coated human CD22 protein, anti-human Fc HRP detection
T2 construct: Bought protein coated on ELISA strips
Experimental: The binding of the different bispecific antibodies to their respective antigens is tested with standard ELISA method known to those skilled in the art. Using SM03-Adu as an example, 2 μg/mL of human CD22 protein (Sino Biological) or 5 μg/mL of Aβ oligomer are coated separately onto ELISA stripes (Santa Cruz) overnight at 4° C. or 1 hour at room temperature, respectively. ELISA stripes are blocked with 1% BSA in PBS. Stripes are washed 2 times with PBS. Bispecific antibodies are added in the following concentration, e.g. 10 μg/mL, 2 μg/mL, 0.4 μg/mL, 0.08 μg/mL, 0.016 μg/mL, 0.0032 μg/mL, 0.00064 μg/mL and incubated for 1 hour at room temperature. Stripes are washed 3 times with PBS. Stripes are incubated with anti-human Fc HRP-conjugated antibody diluted 1:6000 in PBS for 1 hour at room temperature. Fifty μL TMB (Invitrogem) is then added. After 30 minutes incubation at room temperature, 50 μL stop solution (2N H2SO4) is added to stop the reaction. Coloration are read by plate reader.

T1 sequence (P20138 18-364 limits assumed): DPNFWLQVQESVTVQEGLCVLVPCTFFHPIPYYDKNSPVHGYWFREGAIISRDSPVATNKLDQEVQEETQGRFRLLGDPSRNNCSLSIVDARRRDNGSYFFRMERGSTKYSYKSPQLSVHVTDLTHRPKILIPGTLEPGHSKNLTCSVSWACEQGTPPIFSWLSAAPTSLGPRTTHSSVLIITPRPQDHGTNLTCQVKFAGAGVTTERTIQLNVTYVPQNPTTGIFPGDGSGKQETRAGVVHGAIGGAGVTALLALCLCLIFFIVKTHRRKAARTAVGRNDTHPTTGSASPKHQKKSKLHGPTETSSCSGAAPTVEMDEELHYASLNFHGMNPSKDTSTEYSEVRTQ

Binder	binding result [1]	EC50 (read off the curve) [2]
B1	binds	
B2		~0.1 µg/mL
